Measurements as given in PMC3818285, “Increased Biomass, Seed Yield and Stress Tolerance Is Conferred in Arabidopsis by a Novel Enzyme from the Resurrection Grass Sporobolus stapfianus That Glycosylates the Strigolactone Analogue GR24” (PLoS ONE, 2013).

Substrate: [H][C@]12Cc3ccccc3[C@@]1([H])OC(=O)/C2=C/O[C@@H]1C=C(C)C(=O)O1
Test: coupled enzyme assay (NADH oxidation), Lineweaver-Burk plot
Type: biochemical, Sporobolus stapfianus
Conditions: pH 7.4, leaf protein extract 25 µg, background without substrate subtracted, vector-only control extract

B1: SDG8i (Sporobolus stapfianus) (protein)
chain: MTKTVVLYPIRGAGHLTPMIQLARLFLQHGGFNVTVAIGSSPEDSDFSALVARAAAANPSVTFHILPQPSSTPDGSNTDVTPKHKHPVVHLFDTLGAMNAPLRDFLRSLPAVDALVVDMFCYDALDVAAELELPAYFLYASGAGDLAVFLNLPSARAGMTTSFAELGDTLLTLPGAPPFKASDLPADAINDNEVARCTRRMFERMPESHGILVNSFEALETRAVRALRDGLCVPDRATPPIYCIGPLVSGGGGEKEHECLRWLDAQPDNSVVFLCFGSMGTFSKKQLHDIAVGLEKSEQRFLWVVRSPRSDDHKFGEPRPELDLDAFLRDGFLERTKERGLVLKSWAPQVDVLHHRATGAFVTHCGWNSTLEGIMAGIPLLCWPLYAEQRMNKVFIVDELKLGVEMRGYNQEVVKAEEVESKVRWVLESEAGQAIRERVLAMKDKAAEALKEGGPSHVEFVKFLKDLEAVGRP
notes: unpurified leaf protein extract; no tag stated
Protein B1 has a Km of 349 µM.
